From IntAct's records for PubMed 22404908

B1: Rho-related GTP-binding protein RhoD (Homo sapiens), O00212 (parent)
chain: MTAAQAAGEEAPPGVRSVKVVLVGDGGCGKTSLLMVFADGAFPESYTPTVFERYMVNLQVKGKPVHLHIWDTAGQDDYDRLRPLFYPDASVLLLCFDVTSPNSFDNIFNRWYPEVNHFCKKVPIIVVGCKTDLRKDKSLVNKLRRNGLEPVTYHRGQEMARSVGAVAYLECSARLHDNVHAVFQEAAEVALSSRGRNFWRRITQGFCVVT

Variants of: B1
Conditions: with plxb1_human PLXNB1, O43157
plxb1_human PLXNB1, O43157, sequence (O43157 whole entry): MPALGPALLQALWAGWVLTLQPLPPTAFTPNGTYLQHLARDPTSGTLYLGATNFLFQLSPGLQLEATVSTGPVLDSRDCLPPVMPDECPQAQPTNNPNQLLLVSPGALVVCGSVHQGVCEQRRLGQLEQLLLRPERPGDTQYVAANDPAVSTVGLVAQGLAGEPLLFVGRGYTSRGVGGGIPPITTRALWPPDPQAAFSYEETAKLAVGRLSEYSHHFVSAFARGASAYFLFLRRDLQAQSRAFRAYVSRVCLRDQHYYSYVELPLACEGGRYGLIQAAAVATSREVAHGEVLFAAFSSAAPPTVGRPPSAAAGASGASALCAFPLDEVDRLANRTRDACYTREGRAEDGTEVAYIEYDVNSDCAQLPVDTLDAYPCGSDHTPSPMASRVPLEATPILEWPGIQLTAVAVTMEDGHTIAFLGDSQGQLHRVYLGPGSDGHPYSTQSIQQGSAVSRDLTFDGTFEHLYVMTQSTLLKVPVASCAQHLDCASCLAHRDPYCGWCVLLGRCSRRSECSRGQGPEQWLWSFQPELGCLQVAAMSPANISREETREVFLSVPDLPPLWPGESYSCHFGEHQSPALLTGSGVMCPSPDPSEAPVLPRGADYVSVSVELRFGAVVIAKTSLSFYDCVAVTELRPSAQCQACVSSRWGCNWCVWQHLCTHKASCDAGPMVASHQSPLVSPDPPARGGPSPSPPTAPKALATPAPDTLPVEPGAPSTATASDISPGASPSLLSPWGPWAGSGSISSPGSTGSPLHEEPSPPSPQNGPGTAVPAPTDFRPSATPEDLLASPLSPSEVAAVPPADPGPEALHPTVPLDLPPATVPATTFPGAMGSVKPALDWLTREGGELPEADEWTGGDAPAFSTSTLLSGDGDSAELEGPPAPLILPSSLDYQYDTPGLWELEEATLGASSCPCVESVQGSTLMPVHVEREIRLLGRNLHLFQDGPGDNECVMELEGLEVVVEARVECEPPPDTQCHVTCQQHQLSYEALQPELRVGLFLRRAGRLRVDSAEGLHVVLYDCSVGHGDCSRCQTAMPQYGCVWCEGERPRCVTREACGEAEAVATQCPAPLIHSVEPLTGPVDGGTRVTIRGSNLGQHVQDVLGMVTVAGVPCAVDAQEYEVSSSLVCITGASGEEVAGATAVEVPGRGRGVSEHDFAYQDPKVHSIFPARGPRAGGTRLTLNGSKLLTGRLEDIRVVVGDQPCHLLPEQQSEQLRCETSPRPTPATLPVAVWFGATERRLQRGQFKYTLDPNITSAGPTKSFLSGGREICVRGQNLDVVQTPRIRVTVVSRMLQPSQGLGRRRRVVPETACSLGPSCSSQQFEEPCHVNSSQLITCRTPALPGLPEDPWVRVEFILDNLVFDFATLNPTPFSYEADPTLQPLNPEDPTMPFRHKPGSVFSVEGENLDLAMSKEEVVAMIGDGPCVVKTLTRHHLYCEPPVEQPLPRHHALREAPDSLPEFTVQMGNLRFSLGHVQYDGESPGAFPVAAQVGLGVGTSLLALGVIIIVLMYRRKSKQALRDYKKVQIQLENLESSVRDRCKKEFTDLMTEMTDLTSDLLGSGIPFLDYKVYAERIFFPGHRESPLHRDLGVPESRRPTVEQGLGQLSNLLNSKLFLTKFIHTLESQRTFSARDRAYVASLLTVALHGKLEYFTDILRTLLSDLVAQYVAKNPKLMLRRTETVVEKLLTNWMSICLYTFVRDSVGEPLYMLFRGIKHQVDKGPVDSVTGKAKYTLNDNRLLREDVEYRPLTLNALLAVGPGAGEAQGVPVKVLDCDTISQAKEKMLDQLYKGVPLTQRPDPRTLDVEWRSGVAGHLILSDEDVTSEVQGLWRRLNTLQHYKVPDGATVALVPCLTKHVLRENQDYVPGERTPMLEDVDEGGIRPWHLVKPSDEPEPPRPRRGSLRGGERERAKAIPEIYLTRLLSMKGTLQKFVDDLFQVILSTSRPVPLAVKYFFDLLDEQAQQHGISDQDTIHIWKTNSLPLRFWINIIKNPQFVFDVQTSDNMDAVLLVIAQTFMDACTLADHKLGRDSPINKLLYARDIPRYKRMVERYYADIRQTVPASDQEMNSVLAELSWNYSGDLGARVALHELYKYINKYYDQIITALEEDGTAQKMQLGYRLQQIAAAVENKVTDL

| Variant | effect of a mutation on the interaction |
| --- | --- |
| MTAAQAAGEEAPPGVRSVKVVLVGDGGCGKKSLLMVFADGAFPESYTPTVFERYMVNLQVKGKPVHLHIWDTAGQDDYDRLRPLFYPDASVLLLCFDVTSPNSFDNIFNRWYPEVNHFCKKVPIIVVGCKTDLRKDKSLVNKLRRNGLEPVTYHRGQEMARSVGAVAYLECSARLHDNVHAVFQEAAEVALSSRGRNFWRRITQGFCVVT [T31K] | disrupting interaction |
